{
  "source": "patent US20030162277",
  "proteins": {"B1": {"name": "Murine Lymph node Stromal cell Kinase 1 (MLSK-1) (protein)", "chain": "MESVALLQRPSQAPSASALASESARPLADGLIKSPKPLMKKQAVKRHHHKHNLRHRYEFLETLGKGTYGKVKKARESSGRLVAIKSIRKDKIKDEQDLLHIRREIEIMSSLNHPHIIAIHEVFENSSKIVIVMEYASRGDLYDYISERPRLSERDARHFFRQIVSALHYCHQNGIVHRDLKLENILLDANGNIKIADFGLSNLYHKGKFLQTFCGSPLYASPEIVNGKPYVGPEVDSWSLGVLLYILVHGTMPFDGQDHKTLVKQISNGAYREPPKPSDACGLIRWLLMVNPTRRATLEDVASHWWVNWGYTTGVGEQEALREGGHPSGDFGRASMADWLRRSSRPLLENGAKVCSFFKQHVPGGGSTVPGLERQHSLKKSRKENDMAQNLQGDPAEDTSSRPGKSSLKLPKGILKKKSSTSSGEVQEDPQELRPVPDTPGQPVPAVSLLPRKGILKKSRQRESGYYSSPEPSESGELLDASDVFVSGDPVEQKSPQASGLLLHRKGILKLNGKFSRTALEGTTPSTFGSLDQLASSHPAARPSRPSGAVSEDSILSSESFDQLDLPERLPETPLRGCVSVDNLRGLEQPPSEGLKRWWQESLGDSCFSLTDCQEVTAAYRQALGICSKLS"}},
  "key": {"[1]": {"molecular_target": "T1, p34 cdc-kinase substrate peptide PKTPKKAKKL", "T1 chain": "PKTPKKAKKL"}, "[2]": {"molecular_target": "T2, p42/p44 MAP kinase substrate peptide LMECRNSPVAKT", "T2 chain": "LMECRNSPVAKT"}, "[3]": {"molecular_target": "T3, csk tyrosine kinase substrate peptide KKKKEEIYFFF", "T3 chain": "KKKKEEIYFFF"}, "[4]": {"molecular_target": "T4, cdc2-kinase substrate peptide Ac-SPGRRRRK", "T4 chain": "SPGRRRRK"}, "[5]": {"molecular_target": "T5, S6 kinase substrate peptide LSSLRASTSKSGGQK", "T5 chain": "LSSLRASTSKSGGQK"}, "[6]": {"molecular_target": "T6, casein kinase I substrate peptide RRKDLHDDEEDEAMSITA", "T6 chain": "RRKDLHDDEEDEAMSITA"}, "[7]": {"molecular_target": "T7, c-src tyrosine kinase substrate peptide YIYGSFK", "T7 chain": "YIYGSFK"}, "[8]": {"molecular_target": "T8, casein kinase II substrate peptide RRRDDDSDDD", "T8 chain": "RRRDDDSDDD"}, "[9]": {"molecular_target": "T9, Ca-/calmodulin-dependent PK substrate peptide KKALRRQETVDAL", "T9 chain": "KKALRRQETVDAL"}, "[10]": {"molecular_target": "T10, myosin light chain kinase substrate peptide KKRPQRATSNVFS", "T10 chain": "KKRPQRATSNVFS"}, "[11]": {"molecular_target": "T11, raf-1 kinase substrate peptide SGQLIDSMANSFVGTRS", "T11 chain": "SGQLIDSMANSFVGTRS"}, "[12]": {"molecular_target": "T12, abl tyrosine kinase substrate peptide EAIYAAPFAKKK", "T12 chain": "EAIYAAPFAKKK"}, "[13]": {"molecular_target": "T13, cAMP-dependent protein kinase substrate peptide LRRASLG", "T13 chain": "LRRASLG"}, "[14]": {"molecular_target": "T14, p42/p44 MAP kinase substrate peptide EAAEAEPAEPSSPAAEAEGA", "T14 chain": "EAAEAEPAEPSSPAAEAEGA"}, "[15]": {"molecular_target": "T15, insulin receptor tyrosine kinase substrate peptide KKKLPATGDYMNMSPVGD", "T15 chain": "KKKLPATGDYMNMSPVGD"}, "[16]": {"molecular_target": "T16, protein kinase C substrate peptide KKRFSFKKSFKLSGFSFK", "T16 chain": "KKRFSFKKSFKLSGFSFK"}, "[17]": {"molecular_target": "T17, p42/p44 MAP kinase substrate peptide APRTPGGRR", "T17 chain": "APRTPGGRR"}, "[18]": {"molecular_target": "T18, Ca-/calmodulin-dependent PK substrate peptide PLARTLSVAGLPGK", "T18 chain": "PLARTLSVAGLPGK"}, "[19]": {"molecular_target": "T19, protein kinase C substrate peptide QKRPSQRSK", "T19 chain": "QKRPSQRSK"}, "[20]": {"molecular_target": "T20, cGMP-dependent protein kinase substrate peptide RKISASEFDRPLR", "T20 chain": "RKISASEFDRPLR"}},
  "data": [
    {"protein": "B1", "values": [
      {"measurement": "Phosphorylation by MLSK-1 (% of max.)", "setting": "[1]", "result": "82 % of max."},
      {"measurement": "Phosphorylation by MLSK-1 (% of max.)", "setting": "[2]", "result": "3.8 % of max."},
      {"measurement": "Phosphorylation by MLSK-1 (% of max.)", "setting": "[3]", "result": "82.1 % of max."},
      {"measurement": "Phosphorylation by MLSK-1 (% of max.)", "setting": "[4]", "result": "94.8 % of max."},
      {"measurement": "Phosphorylation by MLSK-1 (% of max.)", "setting": "[5]", "result": "66.6 % of max."},
      {"measurement": "Phosphorylation by MLSK-1 (% of max.)", "setting": "[6]", "result": "14.1 % of max."},
      {"measurement": "Phosphorylation by MLSK-1 (% of max.)", "setting": "[7]", "result": "66.6 % of max."},
      {"measurement": "Phosphorylation by MLSK-1 (% of max.)", "setting": "[8]", "result": "17.6 % of max."},
      {"measurement": "Phosphorylation by MLSK-1 (% of max.)", "setting": "[9]", "result": "20.9 % of max."},
      {"measurement": "Phosphorylation by MLSK-1 (% of max.)", "setting": "[10]", "result": "72 % of max."},
      {"measurement": "Phosphorylation by MLSK-1 (% of max.)", "setting": "[11]", "result": "43.1 % of max."},
      {"measurement": "Phosphorylation by MLSK-1 (% of max.)", "setting": "[12]", "result": "69.3 % of max."},
      {"measurement": "Phosphorylation by MLSK-1 (% of max.)", "setting": "[13]", "result": "65.9 % of max."},
      {"measurement": "Phosphorylation by MLSK-1 (% of max.)", "setting": "[14]", "result": "0 % of max."},
      {"measurement": "Phosphorylation by MLSK-1 (% of max.)", "setting": "[15]", "result": "33.7 % of max."},
      {"measurement": "Phosphorylation by MLSK-1 (% of max.)", "setting": "[16]", "result": "100 % of max."},
      {"measurement": "Phosphorylation by MLSK-1 (% of max.)", "setting": "[17]", "result": "88.6 % of max."},
      {"measurement": "Phosphorylation by MLSK-1 (% of max.)", "setting": "[18]", "result": "10.3 % of max."},
      {"measurement": "Phosphorylation by MLSK-1 (% of max.)", "setting": "[19]", "result": "75 % of max."},
      {"measurement": "Phosphorylation by MLSK-1 (% of max.)", "setting": "[20]", "result": "62.2 % of max."}
    ]}
  ]
}
